Key:
CXCR4 [1] = biological target: T1, CXCR4 (Homo sapiens, UniProt P61073); type: cell-based; settings: log value
CXCR4 [2] = biological target: T1, CXCR4; experiment: β-Arrestin-2 recruitment in Tango CXCR4-bla U2OS cells; type: cell-based; settings: antagonist at 1 μM

T1 sequence (P61073 whole entry): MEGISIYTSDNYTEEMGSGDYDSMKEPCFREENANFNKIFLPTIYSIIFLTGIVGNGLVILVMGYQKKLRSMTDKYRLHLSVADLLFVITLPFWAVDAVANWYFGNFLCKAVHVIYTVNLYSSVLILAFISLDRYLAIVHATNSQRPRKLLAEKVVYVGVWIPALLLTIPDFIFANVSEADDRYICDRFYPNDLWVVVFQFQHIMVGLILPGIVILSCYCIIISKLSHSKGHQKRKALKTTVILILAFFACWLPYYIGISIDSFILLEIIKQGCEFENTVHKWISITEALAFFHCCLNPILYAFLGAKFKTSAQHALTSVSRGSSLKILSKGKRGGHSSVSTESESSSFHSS

inhibition of forskolin-stimulated cAMP production log IC50 (CXCR4 [1]) [M]	effect on CXCL12 β-arrestin response (CXCR4 [2])	Molecule
−8.9 ± 0.1	–	CXCL12: C-X-C Motif Chemokine Ligand 12, chemokine that binds CXCR4; endogenous ligand
–	abolishes CXCL12 β-arrestin response	c1cc(CN2CCCNCCNCCCNCC2)ccc1CN1CCCNCCNCCCNCC1 [AMD3100]
